# Measurements published in patent publication US8895526B2, “Identification of RNAI targets and use of RNAI for rational therapy of chemotherapy-resistant leukemia and other cancers” (Cold Spring Harbor Laboratory, priority 2009, dated 2014).
# Assays:
# [1] = system: immortalized murine embryonic fibroblasts (Mef); assay: Pooled negative selection RNAi screening (deep sequencing); type: cell-based; conditions: deep sequencing reads, on dox compared to initial representation
# Description: (§1) In addition to the analysis of single shRNAs for inhibitory effects in vitro and in vivo, the combination of tet-on competent cancer models and tet-regulatable shRNA expression vectors allowing for monitoring shRNA expression through fluorescent and other reporter genes (e.g. TRMPV and derivates) facilitates pooled shRNA negative selection screening (FIG. 37). In such approaches a pool of over 1,000 shRNAs are retrovirally transduced into tet-on competent cancer models (here MLL/AF9+Nras AML) and selected for shRNA containing cells by either drug selection (e.g. G418) or fluorescence-activated cell sorting (FACS). Selected cell populations harboring a library of shRNAs then can be cultured in the absence or presence of doxycyline (off dox and on dox, respectively) or injected into syngeneic recipient mice that are either treated with doxycyline or left untreated.
# (§2) The representation of each shRNA within the pool can be effectively assessed by deep sequencing of shRNA cassettes in a given cell population. For this, genomic DNA is extracted from leukemia cells containing the shRNA pool, and the shRNA guide or passenger strand (21-22 target gene specific nucleotides of the shRNA) by PCR using primers specific for common sequences flanking the gene specific part of the shRNA (e.g. miR30 19 nt loop and miR30 common 3′ sequence). The primers also contain 5′-adapters required for deep sequencing (e.g. for Illumina/Solexa sequencing primers are p5+mir3: 5′-[…]-3′ (SEQ ID NO: 215) and p7+Loop: 5′-[…]-3′ (SEQ ID NO: 216)). Deep sequencing is subsequently performed using a primer binding the flanking nucleotide sequence next to the target gene specific part of the shRNA (for Illumina/Solexa platforms the primer is mir30EcoR1Seq: 5′-TAGCCCCTTGAATTCCGA GGCAGTAGGCA-3′ (SEQ ID NO: 217)).
# (§3) The use of shRNA vectors that allow for monitoring of shRNA expression through fluorescent and other reporter genes (e.g. TRMPV) in combination with tet-on competent mouse models facilitates the isolation of pure shRNA expressing cell populations (e.g. by FACS, for TRMPV by sorting of Venus/dsRed double positive cells (FIG. 38). This selection of shRNA expressing cells prior to DNA isolation strongly reduces the background caused by cell populations with insufficient shRNA induction, which are predicted to contain genomic representation of the whole shRNA library without shRNA specific shifts in representation. The final readout is based on the comparison of shRNA representation (i.e. deep sequencing read numbers) before the assay (t0) or from cell populations left without doxycycline treatment (off dox) to those where shRNA were induced and cells subsequently sorted for shRNA expressing cells (on dox). shRNA with inhibitory effects are predicted to loose representation (show less reads) on dox compared to t0 and off dox.
# (§4) This pooled is RNAi screening strategy can be applied to rapidly survey inhibitory effects of large pools of shRNAs (˜1000 at a time) in different tet-on competent cancer models and normal control cells (FIG. 39). For example, a pool of 1166 shRNAs targeting 836 predominantly druggable genes associated with MLL fusion proteins in human leukemia and mouse models of MLL/AF9-induced AML (MLL cure library) was analyzed in pooled negative selection screening in tet-on competent MLL/AF9+Nras AML and immortalized murine embryonic fibroblasts (Mef) in parallel. To establish and validate this screening approach, the pool also contained 64 control shRNAs each of which have been previously analyzed for inhibitory effects in both AML cells and Mefs using the same experimental system (FIG. 40).
# (§5) After pooling of 1166 experimental and 64 control shRNAs the presence of shRNAs was verified by deep sequencing of shRNAs within the plasmid vector pool (FIG. 41). […]
# [2] = system: tet-on competent MLL/AF9+Nras AML; assay: as above; type: cell-based, mouse; conditions: deep sequencing reads, On Dox compared to T0
# Description: as §1, §2, §3, §4, §5
Molecule,Fold depletion in Mef [1],Fold depletion in AML [2]
"Mef2c.1872: shRNA, SEQ ID NO: 141 (nucleic acid) TGCTGTTGACAGTGAGCGCTGCCTCAGTGATACAGTATAATAGTGAAGCCACAGATGTATTATACTGTATCACTGAGGCAATGCCTACTGCCTCGGA",0.77 Fold,63.15 Fold
"Fn1.4143: shRNA, SEQ ID NO: 121 (nucleic acid) TGCTGTTGACAGTGAGCGCCAGTAGGATACTACACAGTTATAGTGAAGCCACAGATGTATAACTGTGTAGTATCCTACTGATGCCTACTGCCTCGGA",0.84 Fold,36.54 Fold
"Adam23.5211: shRNA, SEQ ID NO: 89 (nucleic acid) TGCTGTTGACAGTGAGCGCTACGACCACGTCAGTTACAAATAGTGAAGCCACAGATGTATTTGTAACTGACGTGGTCGTATTGCCTACTGCCTCGGA",0.30 Fold,40.11 Fold
"Slc12a5.3582: shRNA, SEQ ID NO: 179 (nucleic acid) TGCTGTTGACAGTGAGCGAAACGAGGTCATCGTGAATAAATAGTGAAGCCACAGATGTATTTATTCACGATGACCTCGTTCTGCCTACTGCCTCGGA",2.21 Fold,12.58 Fold
"Cd6.520: shRNA, SEQ ID NO: 102 (nucleic acid) TGCTGTTGACAGTGAGCGAGAGCCACTTCTGGGAACACAATAGTGAAGCCACAGATGTATTGTGTTCCCAGAAGTGGCTCCTGCCTACTGCCTCGGA",2.28 Fold,28.66 Fold
"Dsp.6155: shRNA, SEQ ID NO: 114 (nucleic acid) TGCTGTTGACAGTGAGCGCCAGGAAGTTCTTCGATCAATATAGTGAAGCCACAGATGTATATTGATCGAAGAACTTCCTGTTGCCTACTGCCTCGGA",0.60 Fold,242.96 Fold
"Cx3cr1.1223: shRNA, SEQ ID NO: 111 (nucleic acid) TGCTGTTGACAGTGAGCGACTGCATCTTATGTGCAAGAAATAGTGAAGCCACAGATGTATTTCTTGCACATAAGATGCAGGTGCCTACTGCCTCGGA",0.69 Fold,12.98 Fold
"Fgd4.821: shRNA, SEQ ID NO: 119 (nucleic acid) TGCTGTTGACAGTGAGCGAAAGGAGACTAATGAACAGAAATAGTGAAGCCACAGATGTATTTCTGTTCATTAGTCTCCTTCTGCCTACTGCCTCGGA",2.12 Fold,25.66 Fold
"Gart.2470: shRNA, SEQ ID NO: 126 (nucleic acid) TGCTGTTGACAGTGAGCGCAAGAATCTGATTGAAACCATATAGTGAAGCCACAGATGTATATGGTTTCAATCAGATTCTTATGCCTACTGCCTCGGA",0.67 Fold,146.15 Fold
"Thyn1.315: shRNA, SEQ ID NO: 186 (nucleic acid) TGCTGTTGACAGTGAGCGCAAGCAACTACTGGCTGATGAATAGTGAAGCCACAGATGTATTCATCAGCCAGTAGTTGCTTATGCCTACTGCCTCGGA",1.04 Fold,145.53 Fold
"Fn3k.298: shRNA, SEQ ID NO: 122 (nucleic acid) TGCTGTTGACAGTGAGCGAAAGAGCCTTAGCAGTCAGGCATAGTGAAGCCACAGATGTATGCCTGACTGCTAAGGCTCTTCTGCCTACTGCCTCGGA",2.82 Fold,103.54 Fold
"Pygl.1463: shRNA, SEQ ID NO: 171 (nucleic acid) TGCTGTTGACAGTGAGCGCACCAGACAAGTTCCAGAATAATAGTGAAGCCACAGATGTATTATTCTGGAACTTGTCTGGTTTGCCTACTGCCTCGGA",1.94 Fold,118.65 Fold
"Pctk1.948: shRNA, SEQ ID NO: 161 (nucleic acid) TGCTGTTGACAGTGAGCGCCCGGGAAGTATCCCTGCTTAATAGTGAAGCCACAGATGTATTAAGCAGGGATACTTCCCGGATGCCTACTGCCTCGGA",0.27 Fold,123.76 Fold
"Ap1s2.2744: shRNA, SEQ ID NO: 90 (nucleic acid) TGCTGTTGACAGTGAGCGACAGGAGCAAGATGAGTTACTATAGTGAAGCCACAGATGTATAGTAACTCATCTTGCTCCTGCTGCCTACTGCCTCGGA",2.31 Fold,57.84 Fold
"Tnfsf12.1204: shRNA, SEQ ID NO: 187 (nucleic acid) TGCTGTTGACAGTGAGCGCAATGGATATTAAAGAGAATAATAGTGAAGCCACAGATGTATTATTCTCTTTAATATCCATTTTGCCTACTGCCTCGGA",0.93 Fold,36.03 Fold
"Arf3.1357: shRNA, SEQ ID NO: 91 (nucleic acid) TGCTGTTGACAGTGAGCGACCCTTCTGTGTTGGTGAGATATAGTGAAGCCACAGATGTATATCTCACCAACACAGAAGGGCTGCCTACTGCCTCGGA",0.86 Fold,94.96 Fold
"Cerk.4466: shRNA, SEQ ID NO: 108 (nucleic acid) TGCTGTTGACAGTGAGCGCCTGGTATATTTGAGAAGACAATAGTGAAGCCACAGATGTATTGTCTTCTCAAATATACCAGATGCCTACTGCCTCGGA",0.61 Fold,27.79 Fold
"Pitpnm1.561: shRNA, SEQ ID NO: 165 (nucleic acid) TGCTGTTGACAGTGAGCGCCAGGATGCTTATCAAGGAGTATAGTGAAGCCACAGATGTATACTCCTTGATAAGCATCCTGATGCCTACTGCCTCGGA",0.27 Fold,60.72 Fold
"Slc22a4.2223: shRNA, SEQ ID NO: 181 (nucleic acid) TGCTGTTGACAGTGAGCGCAAACGTATAAATGCTATCCAATAGTGAAGCCACAGATGTATTGGATAGCATTTATACGTTTATGCCTACTGCCTCGGA",3.41 Fold,41.21 Fold
"Fosb.1165: shRNA, SEQ ID NO: 123 (nucleic acid) TGCTGTTGACAGTGAGCGCCAGGCGGAAACTGATCAGCTTTAGTGAAGCCACAGATGTAAAGCTGATCAGTTTCCGCCTGATGCCTACTGCCTCGGA",3.61 Fold,13.12 Fold
"Cpd.1693: shRNA, SEQ ID NO: 109 (nucleic acid) TGCTGTTGACAGTGAGCGCACCAGGTGAACCAGAATTTAATAGTGAAGCCACAGATGTATTAAATTCTGGTTCACCTGGTTTGCCTACTGCCTCGGA",3.91 Fold,50.07 Fold
"Cacna1f.3314: shRNA, SEQ ID NO: 99 (nucleic acid) TGCTGTTGACAGTGAGCGACTGGCCTGCGCTACTATACAATAGTGAAGCCACAGATGTATTGTATAGTAGCGCAGGCCAGCTGCCTACTGCCTCGGA",2.14 Fold,12.52 Fold
"Gas1.2159: shRNA, SEQ ID NO: 128 (nucleic acid) TGCTGTTGACAGTGAGCGACCCGAAATTACAACTGCATTATAGTGAAGCCACAGATGTATAATGCAGTTGTAATTTCGGGGTGCCTACTGCCTCGGA",0.81 Fold,132.34 Fold
"L1cam.5255: shRNA, SEQ ID NO: 137 (nucleic acid) TGCTGTTGACAGTGAGCGCCAGAATTATAACAGGCAAATATAGTGAAGCCACAGATGTATATTTGCCTGTTATAATTCTGATGCCTACTGCCTCGGA",1.26 Fold,31.42 Fold
